In patent publication US8722043B2, “Induction of p53 expression by neutralization of neuropilin-2 for the treatment of cancers” (Diaclone, priority 2008, dated 2014):

Assays:
Type in all cases: cell-based, human
[1] = tested on: HT29-NRP-2 cells; experiment: Annexin V-APC apoptosis test
Procedure: (§1) In order to determine the ability of the ITAC-B1 antibody to induce apoptosis of tumour cells expressing NRP-2, an in vitro Annexin V-APC apoptosis test was carried out (BD Pharmingen, San Diego, Calif.). This test is based on the externalization of phosphatidylserin by apoptotic cells and on the binding of Annexin V-APC to this molecule.
1 ml of DMEM medium containing 10% of inactivated FCS and 100 000 HT29-NRP-2 cells or 100 000 HT29ctrl cells were seeded, per well, into a 24-well Nunc plate. […] In parallel, “cells alone” controls were carried out, as were negative controls (anti-human mouse IgG1 antibody (BZ1) at the same concentrations as the ITAC-B1 antibody).
[…] When the cells began to detach, 500 μl of DMEM medium-10% FCS were added per well. The cells were then centrifuged, washed twice in PBS, and then taken up in 300 μl of 1× binding buffer (provided in the kit), and then 5 μl of Annexin V-APC were subsequently added to 100 μl of this solution.
The panels of FIG. 13 are point-cloud representations of the flow cytometry analysis. For each of the panels, the fluorescence intensity (corresponding to the labelling of the cells with Annexin V-APC) is represented on the x-axis. The y-axis indicates the granulosity of the cells (Side Scatter or SSC). […] The percentage of cells labelled with Annexin V-APC (corresponding to the percentage of cells having entered into apoptosis) is indicated at the bottom-right of each panel.
The apoptosis induced was then measured by labelling with Annexin V-APC as described above.
The panels of FIG. 15 are point-cloud representations of the flow cytometry analysis. For each of the panels, the fluorescence intensity (corresponding to the labelling of the cells with Annexin V-APC) is represented on the x-axis. The y-axis indicates the granulosity (side scatter) of the cells. The conditions of treatment with the antibodies and the Avastin® are indicated to the left of the panels. The percentage of cells labelled with the Annexin V-APC, corresponding to the percentage of cells having entered into apoptosis, is indicated at the top-right of each panel.

[2] = tested on: HT29ctrl cells; experiment: Annexin V-APC apoptosis test; conditions: 0.5, 1 and 5 μg/ml; 16 hours
Procedure: as §1
1 ml of DMEM medium containing 10% of inactivated FCS and 100 000 HT29-NRP-2 cells or 100 000 HT29ctrl cells were seeded, per well, into a 24-well Nunc plate. After adhesion of the cells (3 hours), three concentrations of ITAC-B anti-NRP-2 antibody (0.5 μg/ml, 1 μg/ml and 5 μg/ml) were tested in various wells. In parallel, “cells alone” controls were carried out, as were negative controls (anti-human mouse IgG1 antibody (BZ1) at the same concentrations as the ITAC-B1 antibody).
After incubation for 16 hours, the culture supernatant was drawn off and 500 μl of trypsin-EDTA were added to each well and left in contact for 10 minutes. When the cells began to detach, 500 μl of DMEM medium-10% FCS were added per well. […]
For each of the panels of FIG. 12, the number of events (number of cells) is indicated on the y-axis and the fluorescence intensity (corresponding to the labelling of the cells with the Annexin V-APC) is represented on the x-axis. […]

[3] = tested on: AKT protein; experiment: Western blotting of AKT and its phosphorylation; conditions: 20 μg/ml, 24 hours; HT29-NRP-2 and Colo320^siRNA-ctrl cells; treated versus not treated
Procedure: The possible effect of the ITAC-B1 antibody on the degree of phosphorylation of a VEGF receptor (VEGFR1), and also on the phosphorylation of the AKT protein which is activated by means of the VEGF receptors, was studied on HT29-NRP-2 and Colo320^siRNA-ctrl tumour cells.
The cells were cultured for 24 hours in RPMI medium+10% FCS in the presence of the BZ1 control antibody at 20 μg/ml, of ITAC-B1 at 20 μg/ml or of 5-FU at 50 μg/ml. A “nontreated cell” control was added (“medium” control). The cells were then isolated and lysed, and the phosphorylation of VEGFR-1 and of AKT was evaluated by Western blotting on the cell protein extracts, using antibodies directed against nonphosphorylated VEGFR1 (anti-VEGFR1 rabbit polyclonal antibody) or phosphorylated VEGFR1 (anti-phospho-VEGFR1^Tyr1213 rabbit polyclonal antibody, R&D systems) or antibodies directed against nonphosphorylated AKT (rabbit polyclonal antibody C67E7, Cell Signaling technology) or phosphorylated AKT (anti-phospho-AKT^Ser473 rabbit polyclonal antibody DE-9, Cell Signaling technology). The results are represented in FIGS. 16 and 17.

[4] = tested on: p53 protein; experiment: Western blotting of p53 expression after antibody treatment; conditions: 20 ng/ml, 48 hours
Procedure: The HT29, HT29-NRP-2, Colo320^siRNA-ctrl tumour cells and Colo320^siRNA-NRP-2 were exposed to 20 ng/ml of ITAC-B1 antibody or of control antibody, and cultured for 48 hours. After lysis of the cell lines, migration of the protein pellets obtained on a 10% polyacrylamide gel (10 μg of protein per well) and then transfer onto a PVDF membrane, the membrane was incubated overnight with the anti-p53 primary antibody (BD Biosciences, mouse anti-human p53) diluted to 1/500. After washing in TBS/0.1% Tween20, the membranes were incubated for 1 hour with an anti-mouse IgG-HRP secondary antibody diluted to 1/6000. The results are represented in FIG. 19.

B1: ITAC-B1: anti-human neuropilin-2 murine monoclonal antibody, VH SEQ ID No. 2, VL SEQ ID No. 4, produced by hybridoma CNCM 1-4054 (antibody, listed as Mus musculus, V domains shown)
VH: EVKLQESGAELVKPGASVKLSCTVSGFNIKDTYIHWVIQRPEQGLEWLGRIDPANGNTKYDPKFQGKATITADTSSNTAYLQLSSLTSEDTAVYYCARWAVVGDYWGQGTTLTVSS
VL: YCDHPLYKFLHVSAGDRVTITCKASQSVSDDVAWYQQKPGQSPKLLIYSASNRYTGVPDRFTGSGYGTDFTFTISTVQPEDLAVYFCQQDYSSPTFGSGTKLELK
[1]; 0.5, 1 and 5 μg/ml, 16 hours
  apoptosis induced (Annexin V-APC labelling) as a function of concentration: dose-dependent
[1]; 16 hours incubation, 0.5, 1 and 5 μg/ml tested
  dose at which apoptosis of cells expressing NRP-2 is induced: greater than or equal to 1 μg/ml
[1]; FIG. 13
  combined action with anticancer molecules (5-FU, irinotecan) on apoptosis: synergy of action
[1]; ITAC-B1 2.5 μg/ml jointly with 5-FU 10 μg/ml (FIG. 13)
  percentage of cells labelled with Annexin V-APC (apoptosis): ~78.5%
[1]; ITAC-B1 2.5 μg/ml with irinotecan 10 μg/ml (FIG. 13)
  percentage of cells labelled with Annexin V-APC (apoptosis): ~51%
[1]; ITAC-B1 5 μg/ml jointly with 5-FU 10 μg/ml (FIG. 13)
  percentage of cells labelled with Annexin V-APC (apoptosis): ~80%
[1]; ITAC-B1 5 μg/ml with irinotecan 10 μg/ml (FIG. 13)
  percentage of cells labelled with Annexin V-APC (apoptosis): ~58%
[1]; antibody 20 μg/ml, 6 hours, cells cultured with Avastin (bevacizumab) 50 μg/ml (FIG. 15)
  percentage of cells labelled with Annexin V-APC (apoptosis): approximately 58%
[1]; antibody 20 μg/ml, 6 hours, without Avastin (FIG. 15)
  percentage of cells labelled with Annexin V-APC (apoptosis): ~51%
[1]; selection criterion of the hybridoma clones
  ability to induce apoptosis of tumour cells expressing neuropilin-2 (selection of clones): ability to induce apoptosis of tumour cells expressing neuropilin-2
[2]
  apoptosis (Annexin V-APC labelling): does not bring about the apoptosis of cells not expressing NRP-2
[3]
  amount of AKT and its phosphorylation status: similar
[4]; HT29-NRP-2 and Colo320^siRNA-ctrl
  expression of p53 in lines which express NRP-2: partly restores the expression of p53
[4]; HT29-ctrl and Colo320^siRNA-NRP-2, with or without antibody
  expression of p53 in lines which do not express NRP-2: strongly expressed
